Read-outs that look alike come from different tables or passages of the source. Each block holds one molecule with its values, some of them ahead of it. Positions of bridges follow the written chain, without caps; N, C: chain ends. Non-standard residues stand in square brackets, D forms with d. No end group written: not given here. dCit = NC(=O)NCCC[C@@H](N)C(=O)O; Nle = CCCC[C@H](N)C(=O)O
What was measured:
human MCH-2R [1] = biological target: T1, human MCH-2R (human, UniProt Q969V1 1-340); assay: SPA, total against non-specific binding (500 nM unlabeled hMCH)
human MCH-1R [2] = biological target: T2, human MCH-1R (human, UniProt Q99705 1-353); assay: as above
human MCH-1R [3] = biological target: T2, human MCH-1R; assay: cell-based or functional assay
human MCH-1R [4] = biological target: T2, human MCH-1R; assay: SPA, displacement of [125I]-[Phe13,Tyr19]-hMCH, CHO/MCH-1R membranes
Procedure: (§1) After equilibrating at room temperature for 3 hours, the plates were read in a TopCount (Packard, Meriden, Conn.). IC₅₀ calculations were performed using Prism 3.0 (GraphPad. Software, San Diego, Calif.). The IC₅₀ values were measured in three different experiments.

human MCH-2R [5] = biological target: T1, human MCH-2R; assay: SPA, displacement of [125I]-[Phe13,Tyr19]-hMCH, MCH-2R membranes
Procedure: as §1

human MCH-1R [6] = biological target: T2, human MCH-1R; assay: SPA, displacement of [125I]-[Phe13,Tyr19]-hMCH, CHO/MCH-1R membranes; remark: listed apart in the source
Procedure: as §1

human MCH-1R [7] = biological target: T2, human MCH-1R; assay: cell-based or functional assay; remark: listed apart in the source
human MCH-1R [8] = biological target: T2, human MCH-1R; assay: SPA, displacement of [125I]-[Phe13,Tyr19]-hMCH, CHO/MCH-1R membranes; remark: listed apart in the source
Procedure: as §1

human MCH-2R [9] = biological target: T1, human MCH-2R; assay: SPA, displacement of [125I]-[Phe13,Tyr19]-hMCH, MCH-2R membranes; remark: listed apart in the source
Procedure: as §1

human MCH-1R [10] = biological target: T2, human MCH-1R; assay: cell-based or functional assay; remark: listed apart in the source
human MCH-2R [11] = biological target: T1, human MCH-2R; assay: SPA, displacement of [125I]-[Phe13,Tyr19]-hMCH, MCH-2R membranes; remark: listed apart in the source
Procedure: as §1

human MCH-1R [12] = biological target: T2, human MCH-1R; assay: ratio of the two SPA IC50s
human MCH-2R [13] = biological target: T1, human MCH-2R; assay: cell-based or functional assay
human MCH-2R [14] = biological target: T1, human MCH-2R; assay: cell-based or functional assay; remark: listed apart in the source
human MCH-1R [15] = biological target: T2, human MCH-1R; assay: cell-based or functional assay; remark: listed apart in the source
human MCH-1R [16] = biological target: T2, human MCH-1R; assay: ratio of the two SPA IC50s; remark: listed apart in the source
Procedure: as §1

human MCH-1R [17] = biological target: T2, human MCH-1R; assay: ratio of the two SPA IC50s; remark: listed apart in the source
human MCH-2R [18] = biological target: T1, human MCH-2R; assay: SPA radioligand binding assay
Procedure: as §1

human MCH-1R [19] = biological target: T2, human MCH-1R; assay: SPA radioligand binding assay
Procedure: as §1

human MCH-2R [20] = biological target: T1, human MCH-2R; assay: cell-based or functional assay; remark: listed apart in the source
human MCH-2R [21] = biological target: T1, human MCH-2R; assay: cell-based or functional assay; remark: listed apart in the source
human MCH-2R [22] = biological target: T1, human MCH-2R; assay: cell-based or functional assay; remark: listed apart in the source
human MCH-1R [23] = biological target: T2, human MCH-1R; assay: cell-based or functional assay; remark: listed apart in the source
human MCH-2R [24] = biological target: T1, human MCH-2R; assay: SPA, displacement of [125I]-[Phe13,Tyr19]-hMCH, MCH-2R membranes
human MCH-1R [25] = biological target: T2, human MCH-1R; assay: SPA, displacement of [125I]-[Phe13,Tyr19]-hMCH, CHO/MCH-1R membranes
human MCH-1R [26] = biological target: T2, human MCH-1R; assay: ratio of the two SPA IC50s

T2 sequence (Q99705 whole entry): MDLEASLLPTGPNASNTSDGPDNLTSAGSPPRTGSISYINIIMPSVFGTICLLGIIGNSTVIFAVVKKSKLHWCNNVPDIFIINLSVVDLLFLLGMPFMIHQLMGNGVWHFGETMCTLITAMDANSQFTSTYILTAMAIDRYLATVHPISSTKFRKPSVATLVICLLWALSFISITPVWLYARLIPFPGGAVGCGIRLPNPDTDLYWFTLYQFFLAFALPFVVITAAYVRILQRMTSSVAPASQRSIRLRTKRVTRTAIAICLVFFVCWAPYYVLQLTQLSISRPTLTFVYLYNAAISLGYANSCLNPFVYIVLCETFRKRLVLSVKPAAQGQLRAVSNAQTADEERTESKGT
T1 sequence (Q969V1 whole entry): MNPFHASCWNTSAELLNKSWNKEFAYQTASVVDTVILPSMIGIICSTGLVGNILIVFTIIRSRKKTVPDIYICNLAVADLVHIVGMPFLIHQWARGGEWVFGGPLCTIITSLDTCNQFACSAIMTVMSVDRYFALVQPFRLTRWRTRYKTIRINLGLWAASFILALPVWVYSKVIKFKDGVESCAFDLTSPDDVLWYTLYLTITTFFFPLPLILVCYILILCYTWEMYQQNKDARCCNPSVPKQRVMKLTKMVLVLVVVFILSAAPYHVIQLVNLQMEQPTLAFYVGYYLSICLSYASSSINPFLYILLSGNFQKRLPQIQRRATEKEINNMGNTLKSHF

Selectivity 2/1 (MCH-2R/MCH-1R IC50 ratio) (human MCH-1R [12]): 1900 ratio
Activation %, aequorin bioluminescence (human MCH-2R [13]): 74%
EC50, aequorin bioluminescence (human MCH-2R [13]): 57 nM
Activation %, aequorin bioluminescence (human MCH-1R [7]): 123%
EC50, aequorin bioluminescence (human MCH-1R [7]): 32 nM
Selectivity 2/1 (MCH-2R/MCH-1R EC50 activity ratio) (human MCH-1R [7]): 1.8 ratio
IC50 (human MCH-1R [8]): 0.03 nM
IC50 (human MCH-2R [11]): 27 nM
Molecule: Ac-RCMLLRVYRPC-NH2 (disulfide 2-11 (inferred)) [SEQ. ID. NO. 17 (Leu^10 analog of Ac-hMCH(6-16)-NH2)]

Activation %, aequorin bioluminescence (human MCH-2R [14]): 20%
EC50, aequorin bioluminescence (human MCH-2R [14]): 8400 nM
Activation %, aequorin bioluminescence (human MCH-1R [3]): 120%
EC50, aequorin bioluminescence (human MCH-1R [3]): 55 nM
Selectivity 2/1 (MCH-2R/MCH-1R EC50 activity ratio) (human MCH-1R [3]): 150 ratio
IC50 (human MCH-2R [5]): 3300 nM
IC50 (human MCH-1R [6]): 0.5 nM
fold more selective as agonist for hMCH-1R than hMCH-2R (human MCH-1R [15]): ~150 fold
Selectivity 2/1 (MCH-2R/MCH-1R IC50 ratio) (human MCH-1R [16]): 6600 ratio
B1: SEQ. ID. NO. 29 (D-Arg^6, Asn^10 analog of Ac-hMCH(6-16)-NH2) (peptide)
peptide: XCMLNRVYRPC
HELM: PEPTIDE1{[ac].[dR].C.M.L.N.R.V.Y.R.P.C.[am]}$PEPTIDE1,PEPTIDE1,3:R3-12:R3$$$V2.0
SMILES: CSCC[C@@H]1NC(=O)[C@@H](NC(=O)[C@@H](CCCNC(=N)N)NC(C)=O)CSSC[C@@H](C(N)=O)NC(=O)[C@@H]2CCCN2C(=O)[C@H](CCCNC(=N)N)NC(=O)[C@H](Cc2ccc(O)cc2)NC(=O)[C@H](C(C)C)NC(=O)[C@H](CCCNC(=N)N)NC(=O)[C@H](CC(N)=O)NC(=O)[C@H](CC(C)C)NC1=O

Activation %, aequorin bioluminescence (human MCH-2R [22]): 53%
EC50, aequorin bioluminescence (human MCH-2R [22]): 1470 nM
Activation %, aequorin bioluminescence (human MCH-1R [23]): 130%
EC50, aequorin bioluminescence (human MCH-1R [23]): 350 nM
Selectivity 2/1 (MCH-2R/MCH-1R EC50 activity ratio) (human MCH-1R [23]): 4
IC50 (human MCH-2R [24]): 250 nM
IC50 (human MCH-1R [25]): 0.09 nM
Selectivity 2/1 (MCH-2R/MCH-1R IC50 ratio) (human MCH-1R [26]): 890
Molecule: [dR]C[Nle]LNRVYRPC-NH2 (disulfide 2-11 (inferred)) [SEQ. ID. NO. 32 (ΔAc, D-Arg^6, Nle^8, Asn^10 analog of Ac-hMCH(6-16)-NH2)]

Activation %, aequorin bioluminescence (human MCH-2R [22]): 8%
EC50, aequorin bioluminescence (human MCH-2R [22]): > 10000 nM
Activation %, aequorin bioluminescence (human MCH-1R [23]): 110%
EC50, aequorin bioluminescence (human MCH-1R [23]): 1460 nM
IC50 (human MCH-1R [25]): 8.3 nM
Molecule: Ac-[dCit]CMLNRVYRPC-NH2 (disulfide 2-11 (inferred)) [SEQ. ID. NO. 34 (D-Cit^6, Asn^10 analog of Ac-hMCH(6-16)-NH2)]

Continued, molecule first:

Molecule: [^125I]-[Phe^13Tyr^19]-hMCH (peptide)
specific binding window (human MCH-2R [1]): 3 ×
specific binding window (human MCH-1R [2]): > 6 ×

Molecule: Ac-RCMLGRVYRPC-NH2 (disulfide 2-11 (inferred), also called ID; NO; parent compound) [Ac-hMCH(6-16)-NH2]
Activation %, aequorin bioluminescence (human MCH-1R [3]): 99%
EC50, aequorin bioluminescence (human MCH-1R [3]): 20 nM
IC50 (human MCH-1R [4]): 1.4 nM
IC50 (human MCH-2R [5]): 2 nM
IC50 (human MCH-1R [6]): 0.5 nM
Activation %, aequorin bioluminescence (human MCH-1R [7]): 99%
EC50, aequorin bioluminescence (human MCH-1R [7]): 20 nM
IC50 (human MCH-1R [8]): 0.5 nM
IC50 (human MCH-2R [9]): 2 nM
Activation %, aequorin bioluminescence (human MCH-1R [10]): 99%
EC50, aequorin bioluminescence (human MCH-1R [10]): 20 nM
IC50 (human MCH-2R [11]): 2 nM

Molecule: Ac-RCMLARVYRPC-NH2 (disulfide 2-11 (inferred)) [SEQ. ID. NO. 16 (Ala^10 analog of Ac-hMCH(6-16)-NH2)]
Selectivity 2/1 (MCH-2R/MCH-1R IC50 ratio) (human MCH-1R [12]): 16 ratio
Activation %, aequorin bioluminescence (human MCH-2R [13]): 102%
EC50, aequorin bioluminescence (human MCH-2R [13]): 15 nM
Activation %, aequorin bioluminescence (human MCH-1R [7]): 121%
EC50, aequorin bioluminescence (human MCH-1R [7]): 51 nM
Selectivity 2/1 (MCH-2R/MCH-1R EC50 activity ratio) (human MCH-1R [7]): 0.29 ratio
IC50 (human MCH-1R [8]): 0.44 nM
IC50 (human MCH-2R [11]): 7 nM

B2: SEQ. ID. NO. 30 (D-Arg^6, Gln^10 analog of Ac-hMCH(6-16)-NH2) (peptide)
peptide: XCMLQRVYRPC
HELM: PEPTIDE1{[ac].[dR].C.M.L.Q.R.V.Y.R.P.C.[am]}$PEPTIDE1,PEPTIDE1,3:R3-12:R3$$$V2.0
SMILES: CSCC[C@@H]1NC(=O)[C@@H](NC(=O)[C@@H](CCCNC(=N)N)NC(C)=O)CSSC[C@@H](C(N)=O)NC(=O)[C@@H]2CCCN2C(=O)[C@H](CCCNC(=N)N)NC(=O)[C@H](Cc2ccc(O)cc2)NC(=O)[C@H](C(C)C)NC(=O)[C@H](CCCNC(=N)N)NC(=O)[C@H](CCC(N)=O)NC(=O)[C@H](CC(C)C)NC1=O
Activation %, aequorin bioluminescence (human MCH-2R [14]): 11%
EC50, aequorin bioluminescence (human MCH-2R [14]): > 10000 nM
Activation %, aequorin bioluminescence (human MCH-1R [3]): 74%
EC50, aequorin bioluminescence (human MCH-1R [3]): 2300 nM
IC50 (human MCH-2R [5]): 1400 nM
IC50 (human MCH-1R [6]): 6.1 nM
fold more selective as agonist for hMCH-1R than hMCH-2R (human MCH-1R [15]): ~150 fold
Selectivity 2/1 (MCH-2R/MCH-1R IC50 ratio) (human MCH-1R [16]): 230 ratio

B3: SEQ. ID. NO. 15 (Δ(X^6-Cys^7), Mpr^7 analog of Ac-hMCH(6-16)-NH2) (peptide)
peptide: XMLGRVYRPC
modifications: Ac-Arg^6 segment eliminated; Mpr, des-amino-cysteine (3-mercaptopropionic acid) at position 7 instead of Cys; C-terminal amide; disulfide ring
Selectivity 2/1 (MCH-2R/MCH-1R IC50 ratio) (human MCH-1R [17]): 500 ratio
IC50 (human MCH-1R [4]): 7 nM
IC50 (human MCH-2R [18]): > 3000 nM
fold lower binding affinity than Ac-hMCH(6-16)-NH2 (human MCH-1R [19]): ~5 fold
IC50 (human MCH-2R [9]): 3500 nM
Activation %, aequorin bioluminescence (human MCH-2R [20]): 47%
EC50, aequorin bioluminescence (human MCH-2R [20]): 3100 nM
Activation %, aequorin bioluminescence (human MCH-1R [10]): 92%
EC50, aequorin bioluminescence (human MCH-1R [10]): 610 nM
Selectivity 2/1 (MCH-2R/MCH-1R EC50 activity ratio) (human MCH-1R [10]): 5 ratio
EC50 (human MCH-2R [21]): > 3000 nM
fold lower activity than Ac-hMCH(6-16)-NH2 (human MCH-1R [15]): ~30 fold

B4: SEQ. ID. NO. 31 (D-Arg^6, Nle^8, Asn^10 analog of Ac-hMCH(6-16)-NH2) (peptide)
peptide: XCXLNRVYRPC
HELM: PEPTIDE1{[ac].[dR].C.[Nle].L.N.R.V.Y.R.P.C.[am]}$PEPTIDE1,PEPTIDE1,3:R3-12:R3$$$V2.0
SMILES: CCCC[C@@H]1NC(=O)[C@@H](NC(=O)[C@@H](CCCNC(=N)N)NC(C)=O)CSSC[C@@H](C(N)=O)NC(=O)[C@@H]2CCCN2C(=O)[C@H](CCCNC(=N)N)NC(=O)[C@H](Cc2ccc(O)cc2)NC(=O)[C@H](C(C)C)NC(=O)[C@H](CCCNC(=N)N)NC(=O)[C@H](CC(N)=O)NC(=O)[C@H](CC(C)C)NC1=O
Activation %, aequorin bioluminescence (human MCH-2R [14]): 23%
EC50, aequorin bioluminescence (human MCH-2R [14]): 5500 nM
Activation %, aequorin bioluminescence (human MCH-1R [3]): 130%
EC50, aequorin bioluminescence (human MCH-1R [3]): 240 nM
Selectivity 2/1 (MCH-2R/MCH-1R EC50 activity ratio) (human MCH-1R [3]): 23 ratio
IC50 (human MCH-2R [5]): 1600 nM
IC50 (human MCH-1R [6]): 0.28 nM
Selectivity 2/1 (MCH-2R/MCH-1R IC50 ratio) (human MCH-1R [16]): 5700 ratio

Source: patent publication US20050020492A1 (MERCK, published 2005)
